Measured values as given in patent publication US20250340881A1, “PHARMACEUTICAL COMPOSITION FOR TREATING CANCER COMPRISING FOXM1 MUTANT OR FOXM1 SHRNA” (Industry-University Cooperation Foundation Hanyang …, priority 2022, published 2025).
Numbering of substitutions follows the chain as printed. Names and notes keep the numbering of the source.

Experiments:
Type in all cases: cell-based
A549 cells [1] = test: MTT viability of A549 cells co-cultured with THP-1 cells; conditions: ratios 1:0, 1:2, 1:4, 1:6, 48 hours
Procedure: The cell viability was measured to investigate whether the FoxM1 phosphorylation and non-phosphorylation point mutations affected the viability of lung cancer cells, after co-culturing the lung cancer cells (A549) expressing the FoxM1 phosphorylation and non-phosphorylated point mutants and monocyte THP-1 cells. A549 cells (4×10^4 cells/mL) and THP-1 cells were co-cultured at ratios of 1:0, 1:2, 1:4, and 1:6 for 48 hours, and after co-culturing for 48 h and washing off the THP-1 cells, the viability of A549 cells attached to the bottom was measured by an MTT assay.

A549 cells [2] = test: PD-L1 (CD274) mRNA in A549 cells by real-time PCR
Procedure: To examine the mRNA expression levels of PD-1 and PD-L1, which are involved in solid tumor immune evasion, in THP-1 cells and the cells expressing the FoxM1 phosphorylated point mutant, the expression of PD-1 (CD279) mRNA, an immune evasion factor, was measured by qRT-PCR in THP-1 monocytes co-cultured with A549^S25E cells for 48 h (FIG. 7B). It was observed that the expression of mRNA of PD-L1 (CD274), an immune evasion factor, increased by 2 folds in the A549^S25E cells expressing the phosphorylated point mutant compared to the control group.

A549 lung cancer cells [3] = test: Matrigel invasion assay of A549 cells expressing FoxM1 WT or point mutants; conditions: for invasion of cancer cells (in words): Matrigel invasion assay, A549
Procedure: To observe the effects of the WT, phosphorylation, and non-phosphorylated point mutants of FoxM1 proteins on the invasion of cancer cells, an invasion assay using Matrigel was performed in lung cancer cells A549 expressing these mutants.
Specifically, after completely dissolving Matrigel at 4° C. for 16-20 hours, Matrigel was diluted with cold serum-free RPMI 1640 (4° C.) to 1 mg/ml. 100 μl of Matrigel mixture (1 mg/ml) was added to an […] 24-well insert and solidified in a 37° C. incubator for 12-20 hours. 1×10^5 cells/well of lung cancer cells A549 expressing each WT, phosphorylation, and non-phosphorylated point mutant FoxM1 proteins were diluted in serum-free RPMI 1640 (36° C.) and dispensed onto the insert. 0.5 ml/well of warm RPMI 1640 (10% FBS) at 36° C. was dispensed to the insert. For the positive control group, 0.5 ml of RPMI 1640 (10% FBS) containing 5 ng/ml TGF-β at 36° C. was used. The medium was changed once every 3 days, and the degree of invasion was observed. On the 7th day, when sufficient cancer cell invasion was observed, the medium was removed, washed with 1×PBS, and the cells inside the insert were scraped with a cotton swab and washed with 1×PBS to remove any remaining cells and Matrigel inside the insert. 500 μl of 4% paraformaldehyde was dispensed into the 24 wells with the outer surface of the insert, incubated at room temperature for 5 minutes, washed three times with 1×PBS, and stained with 0.05% crystal violet solution for 5 minutes. After 5 minutes, it was washed five times with 1×PBS and dissolved in DMSO. The degree of staining was determined by measuring the absorbance at 590 nm.
Specifically, Matrigel was completely solved at 4° C. for 16-20 hours and diluted to 1 mg/ml in cold serum free RPMI 1640 (4° C.). 100 μl of Matrigel mixture (1 mg/ml) was added into […] 24-well insert and solidified in a 37° C. incubator for 12-20 hours. A549 lung cancer cells expressing Mock or the experimental group FoxM1 WT protein were dispensed on the solidified Matrigel insert with 1×10^5 cells/well diluted in serum free RPMI 1640 (36° C.), and 0.5 ml/well of 36° C. of warm RPMI 1640 (10% FBS) were dispensed. For the positive control group, 0.5 ml of 36° C. RPMI 1640 (10% FBS) containing 5 ng/ml of TGF-β were dispensed. Then, once in 3 days, the medium was changed, and the level of invasion was observed. […] 500 ul of 4% paraformaldehyde was dispensed into 24 wells where the outer surface of the insert was placed, incubated for 5 minutes at room temperature, washed three times with 1×PBS, and stained with 0.05% crystal-violet solution for 5 minutes. After 5 minutes, they were washed 5 times with 1×PBS, and the degree of staining was dissolved in DMSO, and the wavelength was measured at 590 nm.

A549 lung cancer cells [4] = test: EMT marker expression (immunoblot, real-time PCR) in A549 cells expressing FoxM1 WT or mutants; conditions: A549 cells expressing the mutant
Description: To establish a stabilized cell line expressing WT, phosphorylation, and non-phosphorylated point mutants of FoxM1 in lung cancer cells, A549 cells were first infected with pLVX-Tet3G expressing lentivirus, and the infected cells were selected by treating with G418 for 5 days. The selected A549Tet3G cells were infected with lentiviruses expressing WT and phosphorylated point mutants (S25E, S361E, S715E) and non-phosphorylated point mutants (S25A, S361A, S715A) of FoxM1, and then treated with puromycin for 48 hours to establish a stabilized cell line. The established cells were treated with 2 μg/ml of doxycycline to induce expression of WT, phosphorylation, and non-phosphorylated point mutants of FoxM1, and the mRNA and protein expression levels of each FoxM1 point mutant were determined to confirm whether they were well expressed. As shown in FIG. 4A and FIG. 4B, it was confirmed that the WT and each point mutant form of FoxM1 were well expressed through mRNA and protein expression levels. It was observed that the expression levels of N-cadherin and vimentin were higher, and the expression levels of E-cadherin were lower in lung cancer cells expressing the phosphorylated form of FoxM1, specifically, phosphorylated at the phosphorylation site S25, compared to the cells expressing the non-phosphorylated form of FoxM1. In addition, when it was examined whether the expression of these phosphorylation and non-phosphorylated point mutants of FoxM1 affected cell proliferation, it was observed that it had no significant effect on cell proliferation (FIG. 4C).
To establish a stabilized cell line expressing FoxM1 WT in A549 lung cancer cells, first, pLVX-Tet3G expressing lentivirus was infected into cells, and the infected cells were selected by treating 500 μg/ml of G418 for 5 days. The selected A549^Tet3G cells were infected with lentiviruses expressing FoxM1 WT or Mock, and the stabilized cell lines were established by treating with 2 μg/ml of puromycin for 48 hours. After inducing the expression of FoxM1 WT by treating the established cells with 2 μg/ml of doxycycline, the protein expression was observed by immunoblot.

B1: S25E: FoxM1 phosphorylated point mutant of the S25 residue, expressed by lentivirus in A549 cells (protein, listed as Homo sapiens)
chain: MKTSPRRPLILKRRRLPLPVQNAPEETSEEEPKRSPAQQESNQAEASKEVAESNSCKFPAGIKIINHPTMPNTQVVAIPNNANIHSIITALTAKGKESGSSGPNKFILISCGGAPTQPPGLRPQTQTSYDAKRTEVTLETLGPKPAARDVNLPRPPGALCEQKRETCDGEAAGCTINNSLSNIQWLRKMSSDGLGSRSIKQEMEEKENCHLEQRQVKVEEPSRPSASWQNSVSERPPYSYMAMIQFAINSTERKRMTLKDIYTWIEDHFPYFKHIAKPGWKNSIRHNLSLHDMFVRETSANGKVSFWTIHPSANRYLTLDQVFKQQQKRPNPELRRNMTIKTELPLGARRKMKPLLPRVSSYLVPIQFPVNQSLVLQPSVKVPLPLAASLMSSELARHSKRVRIAPKVLLAEEGIAPLSSAGPGKEEKLLFGEGFSPLLPVQTIKEEEIQPGEEMPHLARPIKVESPPLEEWPSPAPSFKEESSHSWEDSSQSPTPRPKKSYSGLRSPTRCVSEMLVIQHRERRERSRSRRKQHLLPPCVDEPELLFSEGPSTSRWAAELPFPADSSDPASQLSYSQEVGGPFKTPIKETLPISSTPSKSVLPRTPESWRLTPPAKVGGLDFSPVQTSQGASDPLPDPLGLMDLSTTPLQSAPPLESPQRLLSSEPLDLISVPFGNSSPSDIDVPKPGSPEPQVSGLAANRSLTEGLVLDTMNDSLSKILLDISFPGLDEDPLGPDNINWSQFIPELQ
B1 was tested, and the “viability of A549 cells co-cultured with THP-1 cells” value (A549 cells [1]) was “gradually increased”, the “mRNA expression of PD-L1 (CD274) compared to the control group” value (A549 cells [2]; A549 cells expressing the protein) was 2 folds and the “invasion of cancer cells (in words)” value (A549 lung cancer cells [3]) was “highest cancer cell invasion”. For the same molecule, the “absorbance value at 590 nm (invasion) compared to the control group” value (A549 lung cancer cells [3]; Matrigel, 7th day, control set to 1) was about 40 times and the “expression of N-cadherin (CDH2), qRT-PCR and Western blot” value (A549 lung cancer cells [4]) was “increased”.

B2: S25A: FoxM1 protein with Ser25 substituted with alanine, non-phosphorylated point mutant, expressed by lentivirus in A549 cells (protein)
chain: B1 chain with E25A
modifications: left off: a dimerising Fc or GST
notes: FoxM1 protein with Ser25 substituted with alanine, non-phosphorylated point mutant, expressed by lentivirus in A549 cells
With B2 the “viability of A549 cells co-cultured with THP-1 cells” value (A549 cells [1]) was “not changed compared to the control group”, the “mRNA (CD274) expression of PD-L1, reduction compared to the control group” value (A549 cells [2]; A549 cells expressing the mutant) was “about 50%” and the “invasion of cancer cells (in words)” value (A549 lung cancer cells [3]; listed as FoxM1 non-phosphorylated point mutant) was “lower relative absorbance”. For the same molecule, the “invasion of cancer cells (in words)” value (A549 lung cancer cells [3]; listed as non-phosphorylated point mutant protein of FoxM1) was “reduced” and the “expression of N-cadherin (CDH2), qRT-PCR and Western blot” value (A549 lung cancer cells [4]) was “reduced and inhibited”.
